Assay results: the nanobody polyreactivity screen of Harvey et al. (2022)

Assay: yeast display, Sf9 membrane polyspecificity reagent, FACS + sequencing; frameworks hold sequencing errors
Outline: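 Nanobodies came from a synthetic yeast display library in Saccharomyces cerevisiae BJ5465, induced with galactose for 36–48 hours and stained for 1 hour at 4 °C with 10% biotinylated, detergent-solubilized Sf9 membrane reagent. Cells were enriched on streptavidin microbeads and then FACS-sorted, with low and high (top ~1%) gates set on anti-HA fluorescence for expression and streptavidin fluorescence for reagent binding. Each polyreactivity label reflects the gate a clone came from. Genes were amplified by colony PCR, sequenced by MiSeq 2 × 250 and filtered by CDR length.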

Row | Sequence | polyreactivity (PSR sort gate)
1 | QVQLVESGGGLVQAGGSLRLSCAASGFTFFGNAMGWYRQAPGKERELVAAITGRAGRTYYADSVKGRFTISRDNAKNTVYLQMNSLKPEDTAVYYCAAKIRTSDMGYWGQGTQVTVSS | high polyreactivity
2 | QVQLVESGGGLVQAGGSLRLSCAASGFTFFHNAMGWYRQAPGKERELVAAITSGGNTYYADSVKGRFTISRDNAKNTVYLQMNSLKPEDTAVYFCNAVISRVVRYEYWGQGTQVTVSS | high polyreactivity
3 | QVQLVESGGGLVQAGGSLRLSCAASGFTFFHYAMGWYRQAPGKERELVAAIDYSAGSTYYADSVKGRFTISRDNAKNTVYLQMNSMKPEDTAVYYCAADARTSRGRRYYYWGQGTQVTVSS | low polyreactivity
4 | QVQLVESGGGLVQAGGSLRLSCAASGFTFFKYAMGWYRQAPGKERELVAAISSSGGSTYYADSVKGRFTISRDNAKNTVYLQMNSLKPEDTAVYYCNRPAAVYFKLVTAYDYWGQGTQVTVSS | high polyreactivity
5 | QVQLVESGGGLVQAGGSLRLSCAASGFTFFLYAMGWYRQAAGKERELGAAINSRGGSTYYADSVKGRFTLSRDNAKNTVYLQMNSLKPEDTAVYYCAAYIPRSYCGYDYGGQGTQVTVSS | high polyreactivity
6 | QVQLVESGGGLVQAGGSLRLSCAASGFTFFLYAMGWYRQAPGKERELVARISSGRDTYYADSVKGRFTISRDNAKKTVYLQMNSLKPEDTAVYYCAVAFWFGYRYYYWGQGTQVTVSS | high polyreactivity
7 | QVQLVESGGGLVQAGGSLRLSCAASGFTFFPNAKGWYRQAPGKERELVADITDGGSTNYADSVKGRFTISRDNAKNTVYLQMNSLKPEDTAVYYCNADWYGWFGGYEYWGQGTQVTVSS | high polyreactivity
8 | QVQLVESGGGLVQAGGSLRLSCAASGFTFFRYAMGWYRQAPGKERELVASITSGGSTNYADSVKGRFTISRDNAKNTVYLQMNSLKPEDTAVYYCAAGSSFFRWVYEATGFYYWGQGTQVTVSS | high polyreactivity
9 | QVQLVESGGGLVQAGGSLRLSCAASGFTFFRYAMGWYSQAPGKERELVATITRGGSTNYADSVKGRFTISRDNAKNTVYLQMNSLQPVDTAVYYCNKDKKTPTFDYWGQGTQVTVSS | low polyreactivity
10 | QVQLVESGGGLVQAGGSLRLSCAASGFTFFVYAMGWYRQAPGKERELVAVITSGGTTNYADSVKGRFTISRDNAKNTVYLQMNSLKPEDTAVYYCATDNGGIPKYVPYDFWGQGTQVTVSS | high polyreactivity
11 | QVQLVESGGGLVQAGGSLRLSCAASGFTFFYNAMGWYRQAPGKEREFVAAISGRGGTTYYADSVKGRFTISRDNAKNTVYLQMNSLKPEDTAVYYCAAYYRGYAYNYWGQGTQVTLSS | high polyreactivity
12 | QVQLVESGGGLVQAGGSLRLSCAASGFTFFYVYTMGWYRQAPGKEREFVAAIDWTGRTYYADSVKGRFTISRDNAKNTVYLQMNSLKPEDTAVYYCNADVAPGIFYGYDSWGQGTQVTVSS | low polyreactivity
13 | QVQLVESGGGLVQAGGSLRLSCAASGFTFGDYAMGWYRQAPGKERELVAAITSTGGSTYYADSVKGRFTISRDNEKHSVYLQMNCLKPEDTAVYYCAKPDYYRMGYWGQGTQVTVCS | low polyreactivity
14 | QVQLVESGGGLVQAGGSLRLSCAASGFTFGDYAMGWYRQAPGKEWELVAAISWSAGSTYYADSVKGRFTISRDNAKNTVYVQMNSLKPEDTAVYYCAADDSATIEDDYWGQGTQVTVSS | high polyreactivity
15 | QVQLVESGGGLVQAGGSLRLSCAASGFTFGENAMGWYRQAPGKERELVATISDSGDSTYYADSVKGRFTISRDNAQNTVYLQMNSLKPEDTAVYYCAAPLPHRGYDEGYWGQGTQVTVSS | low polyreactivity
16 | QVQLVESGGGLVQAGGSLRLSCAASGFTFGEYAMGWYRQQPGKERELVAAISSSSGSTYYADSVKGRFTISRDNAKYTVYLQMNSLKPEDTAVYYCAATTSPRSARYYYWGQGTQVTVSS | high polyreactivity
17 | QVQLVESGGGLVQAGGSLRLSCAASGFTFGGNAMGWYRQAPGKERELVADITWSGGSTYYADSVKGRFTISRDNAKNTVYLQMNSLKPEDTAVYYCNTVRYPSSNSGLDYWGQGTQVTVSS | high polyreactivity
18 | QVQLVESGGGLVQAGGSLRLSCAASGFTFGGYAMGWYRQAPGKERELVAAIRSTGDTTYYADSVKGRFTISRDNAKNTVYVQMNSLKPEDTAVYYCNADLSRDNDFDYWGQGTQVTVSS | low polyreactivity
19 | QVQLVESGGGLVQAGGSLRLSCAASGFTFGGYAMGWYRQAPGKERELVAAITGSGGNTFYADSVKGRFTISRDNAKNTVYLQMNSLKPEDTAVYYCAALAPYIGGVDYDYWGQGTQVTVSS | low polyreactivity
20 | QVQLVESGGGLVQAGGSLRLSCAASGFTFGGYAMGWYRQAPGKERELVAAITRSGGRTYYADSVKGRFTISRDNAKNTVYLQMNSLKPEDTAVYYCNAYVIRALGYGGYDYWGQGTQVTVSS | high polyreactivity
21 | QVQLVESGGGLVQAGGSLRLSCAASGFTFGGYARGWSRQAPRTERELVAAISSSAGRTYYADSVKGRFTISRDNAKNTVYVQMNRLKPEDTAVYYCNTGGVYGPRRYYYWGQGTQVTVSS | high polyreactivity
22 | QVQLVESGGGLVQAGGSLRLSCAASGFTFGHYAMGWYRQAPGKERELVAAISKSGTRTYYADSVKGRFTISRDNAKNTVYLLMNSLKPEDTAVYYCATTAYNGYDYWGQGTQVTVSS | high polyreactivity

Row | Sequence | polyreactivity (PSR sort gate)
23 | QVQLVESGGGLVQAGGSLRLSCAASGFTFGHYAMGWYRQAPGKERELVAAISRSGGTTSYADSVKGRFTISRDNAKNTVYLQMNSLKPEDTAVYYCNKDYIWARYGGGRDYWGQGTQVTVSS | low polyreactivity
24 | QVQLVESGGGLVQAGGSLRLSCAASGFTFGHYVMGWSRQAPGKERELVAAITLSGGGTYYADSVKGRFTISRDNAKNTVYLQMNSLKPEDTAVYYCAAVGGEHAKKTYSRYKVDYWGQGTQVTVSS | low polyreactivity
25 | QVQLVESGGGLVQAGGSLRLSCAASGFTFGLYGMGWYRQAPGKERELVAAISSSGGDTYYADSVKGRFTISRDNAKNTVYLQMNSLKPEDTAVYYCAADRLPQYDYWGQGTQVTVSS | low polyreactivity
26 | QVQLVESGGGLVQAGGSLRLSCAASGFTFGNYVMGWYRQAPGKERELVAAISKRGTSTYYADSVKGRFTISRDNAKNTVYLQMNSLKPEDTAVYYCAADGVYSHKDGLWGQGTQVTVSS | high polyreactivity
27 | QVQLVESGGGLVQAGGSLRLSCAASGFTFGPNTMGWYRQAAGKERELVATITWRGDGSTYYADSVKGRFTISRDNAKNTVYLQMNSLKPEDTAVYYCAAVIRPFSRRDMYYWGQGTQVTVSS | low polyreactivity
28 | QVQLVESGGGLVQAGGSLRLSCAASGFTFGPYAMGWYRQAPGKERELVAGITWSGASTYYADSVKGRFTISRDNAKNSVYLQMNSLKPEDTAVYYCARYYRLGSRYDYWGQGTQVTVSS | low polyreactivity
29 | QVQLVESGGGLVQAGGSLRLSCAASGFTFGPYDMGWYRQAPGKERELVAVIIGGDSTNYADSVKGRFTISRDNAKNSVYLQMNSLKPEDTAVYYCAADYIDRVGWMDYWGQGTQVTVSS | low polyreactivity
30 | QVQLVESGGGLVQAGGSLRLSCAASGFTFGRYALGWYRQPPGKERELVAVISWSGVSTYYADSVKGRFTISRDNAKNTVYLQMNSLKPEDTAVYYCNKRSYHYPYGYDYWGQGTQVTVSS | high polyreactivity
31 | QVQLVESGGGLVQAGGSLRLSCAASGFTFGRYAMGRYRPAPGKVRELVATITRTGSTNYADSVKGRFTISRDNAKNTVDLQMHSLKPEDTAVYYCNAVYSACRYVKYDYWGQGTQVTVSS | low polyreactivity
32 | QVQLVESGGGLVQAGGSLRLSCAASGFTFGRYAMGWYRQAPGKERELVAAIATRGGSTYYADSVKGRFTISRDNAMNTVYLQMNSLKPEDTAVYYCAAGGYYVRYDYWGQGTQVTVSS | high polyreactivity
33 | QVQLVESGGGLVQAGGSLRLSCAASGFTFGRYAMGWYRQAPGKERELVAAISYSGGSTYYADSVKGRFTISRDNAKNTVYLQMNSLKPEDTAVYYCAARDSYWSVYYWGQGTQVTVSS | high polyreactivity
34 | QVQLVESGGGLVQAGGSLRLSCAASGFTFGRYAMGWYRQAPGKERELVAAITRGSGGSYYADSVKGRFTISRDIAKNTVYLQMNSLKPDDTAVYYCATGSRSRGALRYAHFDYWGQGTQVTVSS | high polyreactivity
35 | QVQLVESGGGLVQAGGSLRLSCAASGFTFGSNAMGWYRPAAGKERELVASITTRGGSTYYADSVKGRFTISRDNAKNTVYLQMNSLKPEDTAVYYCAARARYPNWTYYYWGQGTQVTVSS | high polyreactivity
36 | QVQLVESGGGLVQAGGSLRLSCAASGFTFGSNAMGWYRQAPGKERELVAAISSRGGRTYYADSVKGRFTISRDNAKNTVYLQMNSLKPEDTAVYYCNADATVAWREQEYEYWGQGTQVTVSS | high polyreactivity
37 | QVQLVESGGGLVQAGGSLRLSCAASGFTFGSNAMGWYRQAPGKERELVAAISWSGGRTYYADSVKGRFTISRDNAKNTVYLQMNILKPEDTAVFYCNKQYVKPWYRGYYYWGQGTQVTVSS | high polyreactivity
38 | QVQLVESGGGLVQAGGSLRLSCAASGFTFGSYAKGWYRQAPGKERELVAAIRASGGRTYYADSVKGRFTISRDNAKNTVFLQMNSLKPEDTAVYYCAADTGGNPKYDYWGQGTQVTVSS | high polyreactivity
39 | QVQLVESGGGLVQAGGSLRLSCAASGFTFGSYAMGWYRQAPGKDRELVARISSDGSTNYADSVKGRFTISRDYAKNTVYLQMNSLKPEDTAVYYCAVRHRYTRAYWGRDYWGQGTQVTVSS | low polyreactivity
40 | QVQLVESGGGLVQAGGSLRLSCAASGFTFGSYAMGWYRQAPGKEREFVAAITRSGGRTYYADSVKGRFTISRDNAKNTVYLQMNSLKPEDTAVSYCNAYRSALYTPEYDYWGQGTQVNVSS | high polyreactivity
41 | QVQLVESGGGLVQAGGSLRLSCAASGFTFGSYAMGWYRQAPGKERELVAAITSRGGSTYYADSVKGRFTISRDNAKNTVYLQMNSLKPEDTAVYYCNAVLPVYRTNMDYWGQGTQVTVSS | high polyreactivity
42 | QVQLVESGGGLVQAGGSLRLSCAASGFTFGSYAMGWYRQAPGKERELVAAITWSGGSTYYADSVKGRFTISRDNAKNTVYLQMNSLKPEDTAVYYCNAEIRYYGYDYWGQGTQVTVSS | high polyreactivity
43 | QVQLVESGGGLVQAGGSLRLSCAASGFTFGSYAMGWYRQAPGKERELVAASTRRGDNTYYADSVKGRFTISRDNAKNTVYLQMNSLKPEDTAVYYCNVGLRSVVSGEYWGHGTQVTVSS | high polyreactivity
